From the supplement of paper PMC10126150
± gives the standard deviation of the averaged measurements.
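Also: ATP exposure 15 min at 22 °C before imaging.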

What follows are sequences tested on ATP (assay: switch fluorescence ratio, 500 uM ATP over buffer (Cy3 cluster intensity, sum of 5 cycles each) (fold (ratio)); higher = stronger signal-on switching upon ATP binding; sequences stand for … in TCGTCGGCAGCGTCAGATGTGTATAAGAGACAGTTTTTTTTTTTTTTTTTTTTTTTTT…TC). Details: aptamer strand: ATP DNA aptamer (quencher-CACCTGGGGGAGTATTGCGGAGGAAGG + anchor), 100 nM annealed; ATP concentration: 500 uM.
Outline: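 Cy3-labelled switching-strand clusters on a modified Illumina MiSeq flow-cell were annealed to 100 nM quencher-labelled ATP aptamer and imaged first in selection buffer, then after 15 min with 500 uM ATP at 22 °C. NaOH stripping and re-annealing separated each of five buffer/ATP cycles, and clusters outside 100-1000 RFU were excluded. The fluorescence ratio sums target-cycle Cy3 intensity over buffer-cycle Cy3 intensity per cluster and averages it per switch-domain sequence.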
Sequence TGGGTTGTTG has a switch fluorescence ratio of 0.985 ± 0.038.
Work on TCCGAGTGAG yielded a switch fluorescence ratio of 1.13 ± 0.058.
With TATATGGCCC the switch fluorescence ratio was 1.02 ± 0.02.
Work on GAGACTTGTT yielded a switch fluorescence ratio of 0.997 ± 0.042.
TTTTCGTTTC showed a switch fluorescence ratio of 1.01 ± 0.033.
With TTTTATGGAT the switch fluorescence ratio was 1.01 ± 0.013.
ATTACAGGAC was tested, and the switch fluorescence ratio was 1.08 ± 0.012.
Sequence GGTTTCGGAA has a switch fluorescence ratio of 1 ± 0.034.
With CATTTTCTAG the switch fluorescence ratio was 1.03 ± 0.044.
In the case of TCAGGAGGTG, the switch fluorescence ratio is reported as 1.07 ± 0.019.
AACAGTGTAG gave a switch fluorescence ratio of 1 ± 0.013.
Sequence TATTGCTAGG has a switch fluorescence ratio of 0.9582 ± 0.0063.
TTTTTTAAGA gave a switch fluorescence ratio of 1.01 ± 0.025.
TGGATTTAGA gave a switch fluorescence ratio of 1.02 ± 0.017.
Sequence TCGGAAGGG has a switch fluorescence ratio of 0.988 ± 0.037.
TTATTTTAGT showed a switch fluorescence ratio of 1 ± 0.017.
For AAGTTTTATG, the switch fluorescence ratio was 1.03 ± 0.059.
CTATTATCTG was tested, and the switch fluorescence ratio was 1.01 ± 0.024.
Work on GGGAATGGGT yielded a switch fluorescence ratio of 1.01 ± 0.014.
For ATTAGTCAAT, the switch fluorescence ratio was 1.0167 ± 0.0006.
Sequence TGGGAGGATT has a switch fluorescence ratio of 1 ± 0.027.
With CGAATATAAA the switch fluorescence ratio was 0.994 ± 0.054.
In the case of GGGAAACAAA, the switch fluorescence ratio is reported as 0.96 ± 0.059.
In the case of TGTCAAAGAT, the switch fluorescence ratio is reported as 0.9772 ± 0.0044.
CGCACTGTGG was tested, and the switch fluorescence ratio was 1.028 ± 0.0031.
TTTTTAGGGT showed a switch fluorescence ratio of 1 ± 0.073.
AATTGTTTTT gave a switch fluorescence ratio of 1 ± 0.021.
Sequence AAGGGGCGGG has a switch fluorescence ratio of 0.952 ± 0.011.
Sequence AAGGGTTAGA has a switch fluorescence ratio of 0.9864 ± 0.0021.
For AACATAGTAG, the switch fluorescence ratio was 0.96446 ± 0.0004.
TTGGTTGGGA showed a switch fluorescence ratio of 1 ± 0.042.
In the case of ACAGGAGAC, the switch fluorescence ratio is reported as 1.0379 ± 0.00024.
ATTTGCAACT showed a switch fluorescence ratio of 0.994 ± 0.026.
TTTTTATTTG showed a switch fluorescence ratio of 0.995 ± 0.05.
AAGCGCTTTT was tested, and the switch fluorescence ratio was 0.979 ± 0.058.
With GACGACATGT the switch fluorescence ratio was 1.09 ± 0.035.
Sequence GGAGATTTGT has a switch fluorescence ratio of 1.01 ± 0.032.
Sequence TTGCTAAAAA has a switch fluorescence ratio of 1.04 ± 0.03.
In the case of AAGCTGCCTG, the switch fluorescence ratio is reported as 1.02 ± 0.018.
In the case of AATTCAGCCA, the switch fluorescence ratio is reported as 0.9878 ± 0.0057.
In the case of TCCGTGAGAT, the switch fluorescence ratio is reported as 1.44 ± 0.047.
TGCTTGTTTT was tested, and the switch fluorescence ratio was 0.9912 ± 0.0038.
In the case of AAGGCCGGGT, the switch fluorescence ratio is reported as 1.05 ± 0.054.
ATGGTTATCT showed a switch fluorescence ratio of 1.01 ± 0.034.
TGAATCTGTT was tested, and the switch fluorescence ratio was 1.02 ± 0.05.
In the case of GTGGCATGGG, the switch fluorescence ratio is reported as 1 ± 0.014.
Sequence TGTGGCAACG has a switch fluorescence ratio of 0.974 ± 0.032.
Sequence AATCCTTAAT has a switch fluorescence ratio of 1.007 ± 0.0051.
ACGCGGCTAT showed a switch fluorescence ratio of 1.06 ± 0.033.
Work on TCGGTTCATT yielded a switch fluorescence ratio of 0.9962 ± 0.004.
ATAGGGAATG gave a switch fluorescence ratio of 0.9986 ± 0.007.
For GTTTGTTTAG, the switch fluorescence ratio was 1.011 ± 0.006.
With TTGAAAGTAT the switch fluorescence ratio was 1.03 ± 0.048.
CTTGTGAGGG gave a switch fluorescence ratio of 0.985 ± 0.037.
ATTTTATGTG was tested, and the switch fluorescence ratio was 0.991 ± 0.018.
With GTTTAGGGGA the switch fluorescence ratio was 0.999 ± 0.015.
TCGACGGGGA gave a switch fluorescence ratio of 1.1 ± 0.047.
Work on TTTAATTCAT yielded a switch fluorescence ratio of 1.008 ± 0.0088.
For AGGCAGAGTA, the switch fluorescence ratio was 0.992 ± 0.038.
Sequence TGGAATAGGT has a switch fluorescence ratio of 0.999 ± 0.031.
Sequence ATTATTGGTA has a switch fluorescence ratio of 0.987 ± 0.012.
GGGGGGGTGC gave a switch fluorescence ratio of 1.02 ± 0.049.
Sequence TCGATCGCAT has a switch fluorescence ratio of 2.51 ± 2.2.
CGGTGGCGTA gave a switch fluorescence ratio of 0.9975 ± 0.0035.
TAAAAGTCCG showed a switch fluorescence ratio of 1.06 ± 0.022.
TTTTAGCGGT was tested, and the switch fluorescence ratio was 0.974 ± 0.02.
TTGGATGAGC was tested, and the switch fluorescence ratio was 1.03 ± 0.07.
GACAGATATG showed a switch fluorescence ratio of 0.979 ± 0.081.
GCGTGCATTC gave a switch fluorescence ratio of 1.05 ± 0.017.
TTAGGTAGTT gave a switch fluorescence ratio of 0.971 ± 0.051.
With TTTCCACAGG the switch fluorescence ratio was 1.396 ± 0.0082.
GATGAGGAAG was tested, and the switch fluorescence ratio was 1.01 ± 0.06.
In the case of TCTGGGCCGG, the switch fluorescence ratio is reported as 0.989 ± 0.034.
ATAGGATCAC was tested, and the switch fluorescence ratio was 1.02 ± 0.028.
ATTCAGAAGG was tested, and the switch fluorescence ratio was 1.01 ± 0.041.
AGTGGAACTT gave a switch fluorescence ratio of 0.976 ± 0.036.
With GTGGGAGGGA the switch fluorescence ratio was 1.02 ± 0.043.
Sequence CGAGGCAAGT has a switch fluorescence ratio of 5.07 ± 1.3.
In the case of TCGGCCATCG, the switch fluorescence ratio is reported as 1 ± 0.016.
Sequence CTAGGAAGGT has a switch fluorescence ratio of 1.01 ± 0.033.
With GGGGAGGGCC the switch fluorescence ratio was 1.01 ± 0.032.
AACGAGTGTG showed a switch fluorescence ratio of 1.01 ± 0.052.
GCGGGAGTTT gave a switch fluorescence ratio of 0.9667 ± 0.0015.
With TGTGATAGGG the switch fluorescence ratio was 0.978 ± 0.06.
TAGTATGGTA was tested, and the switch fluorescence ratio was 1.01 ± 0.011.
TGCGGGTTAA gave a switch fluorescence ratio of 1.02 ± 0.024.
Sequence GGATAGTGCT has a switch fluorescence ratio of 0.993 ± 0.012.
GAGGGGTGTG was tested, and the switch fluorescence ratio was 0.993 ± 0.029.
In the case of CGTGGAGTCG, the switch fluorescence ratio is reported as 0.989 ± 0.1.
Work on GGGGGCTCTG yielded a switch fluorescence ratio of 0.999 ± 0.028.
In the case of CATGTATTGA, the switch fluorescence ratio is reported as 0.964 ± 0.024.
With TGCTAAAGGG the switch fluorescence ratio was 0.984 ± 0.036.
AGTAGGGGGA gave a switch fluorescence ratio of 0.9912 ± 0.0034.
GGTACTCGTA showed a switch fluorescence ratio of 1.01 ± 0.039.
In the case of CCGAGTAGAG, the switch fluorescence ratio is reported as 1.4 ± 0.067.
In the case of TTGGAGTGGG, the switch fluorescence ratio is reported as 0.987 ± 0.051.
In the case of TTGTGGGGTA, the switch fluorescence ratio is reported as 1 ± 0.023.
In the case of CTCTTGTTTT, the switch fluorescence ratio is reported as 0.988 ± 0.018.
AAAATTTCAA gave a switch fluorescence ratio of 1.011 ± 0.0042.
TGCGCCATTT was tested, and the switch fluorescence ratio was 1.13 ± 0.26.
With TGTAAGTGCG the switch fluorescence ratio was 0.9833 ± 0.0063.
In the case of TGGCAGACGG, the switch fluorescence ratio is reported as 1.01 ± 0.038.
GGAAAAGTTT gave a switch fluorescence ratio of 0.986 ± 0.04.
Work on AATCTGGGGT yielded a switch fluorescence ratio of 1 ± 0.028.
With TCTCAATGCG the switch fluorescence ratio was 1.02 ± 0.065.
Work on TTGCCCCGGC yielded a switch fluorescence ratio of 1.04 ± 0.016.
Work on TTGGGGAAAG yielded a switch fluorescence ratio of 0.986 ± 0.038.
GGCCGAGGGT gave a switch fluorescence ratio of 1.03 ± 0.025.
Work on GGCAGGGACT yielded a switch fluorescence ratio of 1 ± 0.033.
For ATTAGGGGGG, the switch fluorescence ratio was 0.998 ± 0.012.
Sequence AGATTGCATG has a switch fluorescence ratio of 1.029 ± 0.0077.
Work on CGGGCTTTTT yielded a switch fluorescence ratio of 1.016 ± 0.0065.
GCGAAAAATA was tested, and the switch fluorescence ratio was 1.0196 ± 0.00067.
In the case of TTTAAGGGAT, the switch fluorescence ratio is reported as 1 ± 0.041.
TTCGGGAATA was tested, and the switch fluorescence ratio was 1.03 ± 0.022.
Work on TCAGAGGTTT yielded a switch fluorescence ratio of 0.973 ± 0.024.
In the case of CGACACTTAG, the switch fluorescence ratio is reported as 1.049 ± 0.0091.
GAGTCGGGTA gave a switch fluorescence ratio of 1.028 ± 0.0097.
CCTTGGACGG was tested, and the switch fluorescence ratio was 1.03 ± 0.02.
Sequence AGGAGGGTAA has a switch fluorescence ratio of 1.024 ± 0.0031.
TAATTTGAAT was tested, and the switch fluorescence ratio was 1.028 ± 0.0063.
In the case of TAGGGATCGT, the switch fluorescence ratio is reported as 0.98 ± 0.051.
Sequence CGGGGGTGTT has a switch fluorescence ratio of 0.998 ± 0.023.
TTTTAATGTG showed a switch fluorescence ratio of 1 ± 0.016.
Sequence CAAGTATCAT has a switch fluorescence ratio of 0.996 ± 0.076.
TCCGGGATCC gave a switch fluorescence ratio of 1.25 ± 0.04.
AGGTTAGTTT gave a switch fluorescence ratio of 0.985 ± 0.018.
AACCTGCTAA gave a switch fluorescence ratio of 1.057 ± 0.0014.
CAGAATGGTG gave a switch fluorescence ratio of 0.978 ± 0.028.
Sequence TTTTGTATTG has a switch fluorescence ratio of 0.98 ± 0.024.
AGGCCACTGA showed a switch fluorescence ratio of 1.034 ± 0.0011.
Work on TAAAAAAAAG yielded a switch fluorescence ratio of 1.01 ± 0.039.
AGGCATTGGG gave a switch fluorescence ratio of 1.0154 ± 0.00096.
Sequence CGAGGGATTT has a switch fluorescence ratio of 1.05 ± 0.013.
TTAGGGTTTT showed a switch fluorescence ratio of 1.04 ± 0.067.
TAGAAGGTTG gave a switch fluorescence ratio of 0.972 ± 0.018.
In the case of GTCGTTTGCG, the switch fluorescence ratio is reported as 1.012 ± 0.0048.
Work on CATTAAGCTG yielded a switch fluorescence ratio of 1 ± 0.12.
CTTGGTGGGA gave a switch fluorescence ratio of 1.04 ± 0.012.
TGGTGATGGC gave a switch fluorescence ratio of 0.991 ± 0.012.
For AGGTATCCAC, the switch fluorescence ratio was 1.03 ± 0.035.
With GATTTGCTAG the switch fluorescence ratio was 0.997 ± 0.023.
For TTTGGGGTAC, the switch fluorescence ratio was 1.72 ± 1.3.
With TATGCTGGAG the switch fluorescence ratio was 1.02 ± 0.0047.
Work on TGGGGTTTAG yielded a switch fluorescence ratio of 0.99 ± 0.024.
TTTTCGGTCT gave a switch fluorescence ratio of 0.994 ± 0.017.
In the case of TGGGTTTGC, the switch fluorescence ratio is reported as 0.98 ± 0.054.
In the case of TTATGGGTTT, the switch fluorescence ratio is reported as 1 ± 0.036.
With CATACGGGGT the switch fluorescence ratio was 1.01 ± 0.032.
GGGATCTGAA showed a switch fluorescence ratio of 0.969 ± 0.026.
Sequence TCATACGTCT has a switch fluorescence ratio of 0.986 ± 0.09.
In the case of ACGTTCTATA, the switch fluorescence ratio is reported as 1.026 ± 0.0088.
Work on TTTTTTGAAT yielded a switch fluorescence ratio of 0.995 ± 0.027.
In the case of AGATTTAGTC, the switch fluorescence ratio is reported as 1 ± 0.051.
ACTAGGGCAG gave a switch fluorescence ratio of 1.035 ± 0.005.
In the case of GCCGGGGCAG, the switch fluorescence ratio is reported as 1.01 ± 0.033.
With AGCTCTAAGA the switch fluorescence ratio was 1.02 ± 0.021.
